Reference: the supplement of paper PMC7125110
± gives the standard error. Fewer inactive variants are shown than the library holds.

B1: glmS ribozyme (parent)
chain: AUAAAAGCGCCAGAACUACAGAAAUGUAGUUGACGAGGAGGAGGUUUAUCGAAUUUUCGGCGGAUGCCUCCAAA

Legend:
Conditions in all cases: with glucosamine-6-phosphate
[1] = variants of: B1; experiment: self-cleavage kobs at 40 uM GlcN6P; higher = faster cleavage; RNA array
Procedure, shortened: (§1)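 Glucosamine-6-phosphate, from 40 μM to 10 mM in HEPES/KCl/Mg(OAc)2 buffer, was flowed over sequenced MiSeq chips carrying barcoded ribozyme variants transcribed in situ by E. coli RNA polymerase. A hybridised Cy3 probe tracked the variants at 37 °C as tiles were imaged over ~14 h. kobs, kcat and KM were obtained by fitting normalised per-tile medians to exponential decays and then applying weighted Michaelis–Menten fits across concentrations.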

[2] = variants of: B1; experiment: self-cleavage kobs at 10000 uM GlcN6P; higher = faster cleavage; RNA array
Procedure, shortened: as §1

[3] = variants of: B1; experiment: self-cleavage kobs at 160 uM GlcN6P; higher = faster cleavage; RNA array
Procedure, shortened: as §1

[4] = variants of: B1; experiment: self-cleavage kobs at 640 uM GlcN6P; higher = faster cleavage; RNA array
Procedure, shortened: as §1

[5] = variants of: B1; experiment: self-cleavage kobs at 2500 uM GlcN6P; higher = faster cleavage; RNA array
Procedure, shortened: as §1

Variant | self-cleavage kobs at 40 uM GlcN6P [1] [s⁻¹] | self-cleavage kobs at 10000 uM GlcN6P [2] [s⁻¹] | self-cleavage kobs at 160 uM GlcN6P [3] [s⁻¹] | self-cleavage kobs at 640 uM GlcN6P [4] [s⁻¹] | self-cleavage kobs at 2500 uM GlcN6P [5] [s⁻¹]
AUAAAAGCGCCUGAACUACAGAAAUGUAGUUGACGAGGAGGAGGUUUAUCGCAUUUUCGGCGGAUGCCUCCAAA [A12U A52C] | < 1e-05 | 4.23e-05 ± 1.8e-05 |  |  | 
AUAAAAGCGCCUGAAGUACAGAAAUGUAGUUGACGAGGAGGAGGUUUAUCGAAUUUUCGGCGGAUGCCUCCAAA [A12U C16G] | 0.000539 ± 9e-05 | 0.0117 ± 0.0031 | 0.000549 ± 0.00013 | 0.00491 ± 0.0008 | 0.00786 ± 0.0024
AUAAAAGCGCCUGAAUUACAGAAAUGUAGUUGACGAGGAGGAGGUUUAUCGAAUUUUCGGCGGAUGCCUCCAAA [A12U C16U] | 0.00238 ± 0.0003 | 0.0879 ± 0.035 | 0.00439 ± 0.00083 | 0.0232 ± 0.0037 | 0.076 ± 0.027
AUAAAAGCGCCUGAACUACAGAAAUGUAGUUGACGAAGAGGAGGUUUAUCGAAUUUUCGGGGGAUGCCUACAAA [A12U G37A C61G C70A] | < 1e-05 | < 1e-05 |  |  | 
AUAAAAGCGCCUGAGCUACAGAAAUGUAGUUGACGAGGAGGAGGUUUAUCGAAUUUUCGGCGGAUGCCUCCAAA [A12U A15G] | 0.00156 ± 0.00021 | 0.0602 ± 0.02 | 0.00363 ± 0.00072 | 0.0146 ± 0.0029 | 0.0139 ± 0.0034
AUAAAAGCGCCGGAACUACAGAAAUGUAGAUGACGAGGAGGGGGUUUAUCGAACUUUCGGCGGAUGCCUCCAAA [A12G U30A A42G U54C] | < 1e-05 | 6.88e-05 ± 2.4e-05 |  |  | 
AUAAAAGCGCCUGAAAUACAGAAAUGUAGUUGACGAGGAGGAGGUUUAUCCAAUUUUCGGCGGAUGCCUCCAAA [A12U C16A G51C] | < 1e-05 |  |  |  | 
AUAAAAGCGCCUGAAAUACAGAAAUGUAAUUGACGAGGAGGAGGUUUAUCGAUUUUUCGGCGGAUGCCUCCAAA [A12U C16A G29A A53U] | 9.7e-05 ± 2e-05 |  |  |  | 
AUAAAAGCGCCUCAACUACAGAAAUGUAGUUGAUGAGGAGGAGGUUUAUCGAAUUUUCGGCAGAGGCCUCCAAA [A12U G13C C34U G62A U65G] | < 1e-05 |  |  |  | 
AUAAAAGCGCCUGAACUACAGAAAUGUAUUUGUCGAGGAGGUGGUUUAACGAAUUUUCGGCGGAUGCCUCCAAA [A12U G29U A33U A42U U49A] | < 1e-05 |  |  |  | 
AUAAAAGCGCCUGACCUACAGAAAUGUAGUUGACGAGGAGGAGGUUUAUCGAAUAUUCGGCGGAUGCCUCCAAA [A12U A15C U55A] | 0.000587 ± 0.00012 | 0.012 ± 0.0027 |  |  | 
AUAAAAGCGCCUGAACUACAGAAAUGUAGUUCACGAGGAGGAGGUUUAUCGAAUUUUCGGCGGAUGCCUCCAAA [A12U G32C] | < 1e-05 |  | < 1e-05 |  | < 1e-05
AUAAAAGCGCCUGAACUACAGAAAUGUAUUUGACGAGGAGGAGGUUUAUCGAAUUUUCGGCGGAUGCCUCCAAA [A12U G29U] | 0.000958 ± 0.00022 | 0.019 ± 0.0045 |  |  | 
AUAAAAGCGCCUCACCUACAGAAAUGUAGUUGAGGAGGAGGAGGUUUAUCGAAUUUUCGGCGGAUGCCUCCAAA [A12U G13C A15C C34G] | < 1e-05 | < 1e-05 |  | < 1e-05 | < 1e-05
AUAAAAGCGCCUGAACUACAGAAAUGUAGUUGACGAGGAGGAGGUUUAUCGAAUUUUCGGCGGAUGCCUCAAAA [A12U C71A] | 0.000512 ± 5.5e-05 | 0.0343 ± 0.0084 | 0.0012 ± 0.00016 | 0.00333 ± 0.00046 | 0.0115 ± 0.0027
AUAAAAGCGCCUAAACUACAGAAAUGUAGUAGACGAGAAAGAGGUUUAUCGAAUUUUCGGCGGAUGCCUCCAAA [A12U G13A U31A G38A G40A] | < 1e-05 | < 1e-05 |  |  | 
AUAAAAGCGCCUGAACUACAGAAAUGUAGUUGGCGAGGAGGAGGUUUAUCGAAUUUUCGGCGAAUGCCUCCAAA [A12U A33G G63A] | < 1e-05 |  |  |  | 
AUAAAAGCGCCUAAACUACAGAAAUGUAGUUGACGAGGAGGAGGUUCAUCGAGUUUUCGGCGGAUGCCUCCAAA [A12U G13A U47C A53G] | < 1e-05 |  |  |  | 
AUAAAAGCGCCUGAACUACAGAAAUGUAGUUGACGACGAGGUGGUUUCUCGAAUUUUCGGCGGAUGCCUCCAAA [A12U G37C A42U A48C] | < 1e-05 |  |  |  | 
AUAAAAGCGCCGGAACUACAGAAAUGUAGUUGACGAGGAGGAGGUCUAGCGAAUUUUCGGCGGAUGCCUUCAAA [A12G U46C U49G C70U] | < 1e-05 | 3.44e-05 ± 1.4e-05 |  |  | 
AUAAAAGCGCCUGAACUACAGAAAUGUAGUUGACGAGGGGGAGGUUUAUCGAAUUUUCGGCGGAUGCCUCCAAA [A12U A39G] | 0.00377 ± 0.00072 | 0.105 ± 0.045 | 0.00677 ± 0.0016 | 0.0284 ± 0.013 | 0.0119 ± 0.0036
AUAAAAGCGCCUGAAAUACAGAAAUGUAGUUGACGAGGAGGAGGUUUAUCGAUUUUUCGGCGGAUGCCUCCAAA [A12U C16A A53U] | 6.29e-05 ± 1.7e-05 |  |  | 0.000278 ± 8.9e-05 | 0.00138 ± 0.00059
AUAAAAGCGCCUGAUCUACAGAAAUGUAGUUGACGAGGAGGAGGUUUAUCGCAUUUUCGGCGGAUGCCUCCAAA [A12U A15U A52C] | < 1e-05 | < 1e-05 |  |  | 
AUAAAAGCGCCUGAACUACAGAAAUGUAGUUGAGGAGGAGGAGGUUUAUCGAAUUUUCGGCGGAUGCCUCCAAA [A12U C34G] | < 1e-05 | < 1e-05 | < 1e-05 | < 1e-05 | < 1e-05
AUAAAAGCGCCUGAACUACAGAAAUGUAGUUGCCGAGGAGGCGGUUUAUCGAAUUUUCGGCGGAUGCCUCCAAA [A12U A33C A42C] | < 1e-05 |  |  |  | 
AUAAAAGCGCCUGAGCUACAGAAAUGUAGUUGACGAGGAGGAGGUUUAUCGAAUUUUCGGCGGAUGCCUCUAAA [A12U A15G C71U] | 0.00147 ± 0.00036 |  |  |  | 
AUAAAAGCGCCGGAACUACAGAAAUGUAGUUGACGAGGAGGAGGUUUAUCGAAUUUUCGGCGUAUGCCUCCAAA [A12G G63U] | < 1e-05 | < 1e-05 | < 1e-05 |  | 
AUAAAAGCGCCUGAACUACAGAAAUGUAGUUGACGAGAAGAAGGUUUAUCGAAUUUUCGGCGGGUGCCUCCAAA [A12U G38A G41A A64G] | < 1e-05 | < 1e-05 |  |  | 
AUAAAAGCGCCUGAACUACAGAAAUGUAGUUGACGAGGAGGGGGUUUAUUGAAUUUUCGGCGGAUGCCUCGAAA [A12U A42G C50U C71G] | < 1e-05 | < 1e-05 |  |  | 
AUAAAAGCGCCUGAACUACAGAAAUGUAGUUGACGAGGAAGAGUUUUAUCGAAUUUUCGGCGGAUGCCUCCAAA [A12U G40A G44U] | < 1e-05 |  |  | < 1e-05 | 
